Measured values published in IntAct's records for PubMed 16888620.

Molecular target: sgk3_human SGK3 (UniProt Q96BR1)
Sequence (Q96BR1 whole entry): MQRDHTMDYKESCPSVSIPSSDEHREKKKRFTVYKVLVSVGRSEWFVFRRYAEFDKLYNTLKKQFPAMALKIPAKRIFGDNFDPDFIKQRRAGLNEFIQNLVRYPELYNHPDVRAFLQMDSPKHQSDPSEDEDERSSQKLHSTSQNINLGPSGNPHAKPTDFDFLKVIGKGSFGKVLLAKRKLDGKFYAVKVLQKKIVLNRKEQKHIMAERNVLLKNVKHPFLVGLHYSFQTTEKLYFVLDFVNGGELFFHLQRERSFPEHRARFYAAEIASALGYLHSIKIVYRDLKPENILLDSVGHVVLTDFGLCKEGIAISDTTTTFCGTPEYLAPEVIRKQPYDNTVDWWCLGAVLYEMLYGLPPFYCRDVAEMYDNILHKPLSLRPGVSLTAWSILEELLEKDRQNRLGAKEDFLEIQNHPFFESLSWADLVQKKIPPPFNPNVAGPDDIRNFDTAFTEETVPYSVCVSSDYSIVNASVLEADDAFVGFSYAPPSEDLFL

Row | Substance | effect of a mutation on the interaction
1 | E3 ubiquitin-protein ligase Itchy homolog (Homo sapiens), Q96J02 S450A | disrupting interaction strength
2 | E3 ubiquitin-protein ligase Itchy homolog (Homo sapiens), Q96J02 T385A | decreasing interaction strength
